Reference: article PMC11098746 (2024)
No end group written: not given here.

B1: ADP315 (protein)
chain: MARAHWGCCPWLVLLCACAWGHTKPVDLGGQDVRNCSTNPPYLPVTVVNTTMSLTALRQQMQTQNLSAYIIPGTDAHMNEYIGQHDERRAWITGFTGSAGTAVVTMKKAAVWTDSRYWTQAERQMDCNWELHKEVGTTPIVTWLLTEIPAGGRVGFDPFLLSIDTWESYDLALQGSNRQLVSITTNLVDLVWGSERPPVPNQPIYALQEAFTGSTWQEKVSGVRSQMQKHQKVPTAVLLSALEETAWLFNLRASDIPYNPFFYSYTLLTDSSIRLFANKSRFSSETLSYLNSSCTGPMCVQIEDYSQVRDSIQAYSLGDVRIWIGTSYTMYGIYEMIPKEKLVTDTYSPVMMTKAVKNSKEQALLKASHVRDAVAVIRYLVWLEKNVPKGTVDEFSGAEIVDKFRGEEQFSSGPSFETISASGLNAALAHYSPTKELNRKLSSDEMYLLDSGGQYWDGTTDITRTVHWGTPSAFQKEAYTRVLIGNIDLSRLIFPAATSGRMVEAFARRALWDAGLNYGHGTGHGIGNFLCVHEWPVGFQSNNIAMAKGMFTSIEPGYYKDGEFGIRLEDVALVVEAKTKYPGSYLTFEVVSFVPYDRNLIDVSLLSPEHLQYLNRYYQTIREKVGPELQRRQLLEEFEWLQQHTEPLA
modifications: bait human Fc-tagged dimer
B2: ADP328 (peptide)
chain: MAIHKALVMCLGLPLFLFPGAWAQGHVPPGCSQGLNPLYYNLCDRSGAWG
modifications: cysteine pairing not given here; also: human Fc-tagged dimer
B3: ADP356 (protein)
chain: MAPLPGALGVAAAAALWLLLLLLPRTRADEHEHTYQDKEEVVLWMNTVGPYHNRQETYKYFSLPFCVGSKKSISHYHETLGEALQGVELEFSGLDIKFKDDVMPATYCEIDLDKEKRDAFVYAIKNHYWYQMYIDDLPIWGIVGEADENGEDYYLWTYKKLEIGFNGNRIVDVNLTSEGKVKLVPNTKIQMSYSVKWKKSDVKFEDRFDKYLDPS
modifications: bait human Fc-tagged dimer
B4: ADP119 (protein)
chain: MDVCVRLALWLLWGLLLHQGQSLSHSHSEKATGTSSGANSEESTAAEFCRIDKPLCHSEDEKLSFEAVRNIHKLMDDDANGDVDVEESDEFLREDLNYHDPTVKHSTFHGEDKLISVEDLWKAWKSSEVYNWTVDEVVQWLITYVELPQYEETFRKLQLSGHAMPRLAVTNTTMTGTVLKMTDRSHRQKLQLKALDTVLFGPPLLTRHNHLKD
modifications: bait human Fc-tagged dimer
B5: ADP114 (protein)
chain: MVMSVGLSLLLPLWGRTFLLLLSVVMAQSHWPSEPSEAVRDWENQLEASMHSVLSDLHEAVPTVVGIPDGTAVVGRSFRVTIPTDLIASSGDIIKVSAAGKEALPSWLHWDSQSHTLEGLPLDTDKGVHYISVSATRLGANGSHIPQTSSVFSIEVYPEDHSDLQSVRTASPDPGEVVSSACAADEPVTVLTVILDADLTKMTPKQRIDLLHRMRSFSEVELHNMKLVPVVNNRLFDMSAFMAGPGNPKKVVENGALLSWKLGCSLNQNSVPDIHGVEAPAREGAMSAQLGYPVVGWHIANKKPPLPKRVRRQIHATPTPVTAIGPPTTAIQEPPSRIVPTPTSPAIAPPTETMAPPVRDPVPGKPTVTIRTRGAIIQTPTLGPIQPTRVSEAGTTVPGQIRPTMTIPGYVEPTAVATPPTTTTKKPRVSTPKPATPSTDSTTTTTRRPTKKPRTPRPVPRVTTKVSITRLETASPPTRIRTTTSGVPRGGEPNQRPELKNHIDRVDAWVGTYFEVKIPSDTFYDHEDTTTDKLKLTLKLREQQLVGEKSWVQFNSNSQLMYGLPDSSHVGKHEYFMHATDKGGLSAVDAFEIHVHRRPQGDRAPARFKAKFVGDPALVLNDIHKKIALVKKLAFAFGDRNCSTITLQNITRGSIVVEWTNNTLPLEPCPKEQIAGLSRRIAEDDGKPRPAFSNALEPDFKATSITVTGSGSCRHLQFIPVVPPRRVPSEAPPTEVPDRDPEKSSEDDVYLHT
modifications: bait human Fc-tagged dimer
B6: ADP116 (protein)
chain: MVTLQTWLVQALFIFLTTESTGELLDPCGYISPESPVVQLHSNFTAVCVLKEKCMDYFHVNANYIVWKTNHFTIPKEQYTIINRTASSVTFTDIASLNIQLTCNILTFGQLEQNVYGITIISGLPPEKPKNLSCIVNEGKKMRCEWDGGRETHLETNFTLKSEWATHKFADCKAKRDTPTSCTVDYSTVYFVNIEVWVEAENALGKVTSDHINFDPVYKVKPNPPHNLSVINSEELSSILKLTWTNPSIKSVIILKYNIQYRTKDASTWSQIPPEDTASTRSSFTVQDLKPFTEYVFRIRCMKEDGKGYWSDWSEEASGITYEDRPSKAPSFWYKIDPSHTQGYRTVQLVWKTLPPFEANGKILDYEVTLTRWKSHLQNYTVNATKLTVNLTNDRYLATLTVRNLVGKSDAAVLTIPACDFQATHPVMDLKAFPKDNMLWVEWTTPRESVKKYILEWCVLSDKAPCITDWQQEDGTVHRTYLRGNLAESKCYLITVTPVYADGPGSPESIKAYLKQAPPSKGPTVRTKKVGKNEAVLEWDQLPVDVQNGFIRNYTIFYRTIIGNETAVNVDSSHTEYTLSSLTSDTLYMVRMAAYTDEGGKDGPEFTFTTPKFAQGEIE
modifications: bait human Fc-tagged dimer
B7: ADP106 (protein)
chain: MAGGRCGPQLTALLAAWIAAVAATAGPEEAALPPEQSRVQPMTASNWTLVMEGEWMLKFYAPWCPSCQQTDSEWEAFAKNGEILQISVGKVDVIQEPGLSGRFFVTTLPAFFHAKDGIFRRYRGPGIFEDLQNYILEKKWQSVEPLTGWKSPASLTMSGMAGLFSISGKIWHLHNYFTVTLGIP
modifications: bait human Fc-tagged dimer
B8: ADP350 (protein)
chain: MAAAGRLPSSWALFSPLLAGLALLGVGPVPARALHNVTAELFGAEAWGTLAAFGDLNSDKQTDLFVLRERNDLIVFLADQNAPYFKPKVKVSFKNHSALITSVVPGDYDGDSQMDVLLTYLPKNYAKSELGAVIFWGQNQTLDPNNMTILNRTFQDEPLIMDFNGDLIPDIFGITNESNQPQILLGGNLSWHPALTTTSKMRIPHSHAFIDLTEDFTADLFLTTLNATTSTFQFEIWENLDGNFSVSTILEKPQNMMVVGQSAFADFDGDGHMDHLLPGCEDKNCQKSTIYLVRSGMKQWVPVLQDFSNKGTLWGFVPFVDEQQPTEIPIPITLHIGDYNMDGYPDALVILKNTSGSNQQAFLLENVPCNNASCEEARRMFKVYWELTDLNQIKDAMVATFFDIYEDGILDIVVLSKGYTKNDFAIHTLKNNFEADAYFVKVIVLSGLCSNDCPRKITPFGVNQPGPYIMYTTVDANGYLKNGSAGQLSQSAHLALQLPYNVLGLGRSANFLDHLYVGIPRPSGEKSIRKQEWTAIIPNSQLIVIPYPHNVPRSWSAKLYLTPS
modifications: bait human Fc-tagged dimer
B9: ADP385 (protein)
chain: TIKANSEACRDGLRAVMECRNVTHLLQQELTEAQKGFQDVEAQAATCNHTVMALMASLDAEKAQGQKKVEELEGEITTLNHKLQDASAEVERLRRENQVLSVRIADKKYYPSSQDSSSAAAPQLLIVLLGLSALLQ
modifications: bait human Fc-tagged dimer
B10: ADP295 (protein)
chain: MALLLCFVLLCGVVDFARSLSITTPEEMIEKAKGETAYLPCKFTLSPEDQGPLDIEWLISPADNQKVDQVIILYSGDKIYDDYYPDLKGRVHFTSNDLKSGDASINVTNLQLSDIGTYQCKVKKAPGVANKKIHLVVLVKPSGARCYVDGSEEIGSDFKIKCEPKEGSLPLQYEWQKLSDSQKMPTSWLAEMTSSVISVKNASSEYSGTYSCTVRNRVGSDQCLLRLNVVPPSNKAG
modifications: bait human Fc-tagged dimer
B11: ADP370 (protein)
chain: MICQKFCVVLLHWEFIYVITAFNLSYPITPWRFKLSCMPPNSTYDYFLLPAGLSKNTSNSNGHYETAVEPKFNSSGTHFSNLSKTTFHCCFRSEQDRNCSLCADNIEGKTFVSTVNSLVFQQIDANWNIQCWLKGDLKLFICYVESLFKNLFRNYNYKVHLLYVLPEVLEDSPLVPQKGSFQMVHCNCSVHECCECLVPVPTAKLNDTLLMCLKITSGGVIFQSPLMSVQPINMVKPDPPLGLHMEITDDGNLKISWSSPPLVPFPLQYQVKYSENSTTVIREADKIVSATSLLVDSILPGSSYEVQVRGKRLDGPGIWSDWSTPRVFTTQDVIYFPPKILTSVGSNVSFHCIYKKENKIVPSKEIVWWMNLAEKIPQSQYDVVSDHVSKVTFFNLNETKPRGKFTYDAVYCCNEHECHHRYAELYVIDVNINISCETDGYLTKMTCRWSTSTIQSLAESTLQLRYHRSSLYCSDIPSIHPISEPKDCYLQSDGFYECIFQPIFLLSGYTMWIRINHSLGSLDSPPTCVLPDSVVKPLPPSSVKAEITINIGLLKISWEKPVFPENNLQFQIRYGLSGKEVQWKMYEVYDAKSKSVSLPVPDLCAVYAVQVRCKRLDGLGYWSNWSNPAYTVVMDIKVPMRGPEFWRIINGDTMKKEKNVTLLWKPLMKNDSLCSVQRYVINHHTSCNGTWSEDVGNHTKFTFLWTEQAHTVTVLAINSIGASVANFNLTFSWPMSKVNIVQSLSAYPLNSSCVIVSWILSPSDYKLMYFIIEWKNLNEDGEIKWLRISSSVKKYYIHDHFIPIEKYQFSLYPIFMEGVGKPKIINSFTQDDIEKHQSDA
modifications: bait human Fc-tagged dimer
B12: ADP360 (protein)
chain: MGAARGSPARPRRLPLLSVLLLPLLGGTQTAIVFIKQPSSQDALQGRRALLRCEVEAPGPVHVYWLLDGAPVQDTERRFAQGSSLSFAAVDRLQDSGTFQCVARDDVTGEEARSANASFNIKWIEAGPVVLKHPASEAEIQPQTQVTLRCHIDGHPRPTYQWFRDGTPLSDGQSNHTVSSKERNLTLRPAGPEHSGLYSCCAHSAFGQACSSQNFTLSIADESFARVVLAPQDVVVARYEEAMFHCQFSAQPPPSLQWLFEDETPITNRSRPPHLRRATVFANGSLLLTQVRPRNAGIYRCIGQGQRGPPIILEATLHLAEIEDMPLFEPRVFTAGSEERVTCLPPKGLPEPSVWWEHAGVRLPTHGRVYQKGHELVLANIAESDAGVYTCHAANLAGQRRQDVNITVATVPSWLKKPQDSQLEEGKPGYLDCLTQATPKPTVVWYRNQMLISEDSRFEVFKNGTLRINSVEVYDGTWYRCMSSTPAGSIEAQARVQVLEKLKFTPPPQPQQCMEFDKEATVPCSATGREKPTIKWERADGSSLPEWVTDNAGTLHFARVTRDDAGNYTCIASNGPQGQIRAHVQLTVAVFITFKVEPERTTVYQGHTALLQCEAQGDPKPLIQWKGKDRILDPTKLGPRMHIFQNGSLVIHDVAPEDSGRYTCIAGNSCNIKHTEAPLYVVDKPVPEESEGPGSPPP
modifications: bait human Fc-tagged dimer

These binders were tested against Circumsporozoite protein (CSP) (Plasmodium falciparum (isolate 3D7), UniProt Q7K740) (assay: AVEXIS screen signal:noise (double-corrected)).
Circumsporozoite protein (CSP), sequence (Q7K740 19-374): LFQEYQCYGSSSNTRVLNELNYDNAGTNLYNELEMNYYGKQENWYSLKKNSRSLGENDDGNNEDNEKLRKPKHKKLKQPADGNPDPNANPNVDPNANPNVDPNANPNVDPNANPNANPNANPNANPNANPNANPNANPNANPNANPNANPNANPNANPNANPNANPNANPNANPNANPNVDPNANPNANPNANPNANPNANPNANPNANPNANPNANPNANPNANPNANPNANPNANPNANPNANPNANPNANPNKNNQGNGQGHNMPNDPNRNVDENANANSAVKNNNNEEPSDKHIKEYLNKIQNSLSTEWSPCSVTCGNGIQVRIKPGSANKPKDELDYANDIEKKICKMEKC
B1 was tested, and the binding score was 2.59.
Work on B2 yielded a binding score of 1.01.
B3 showed a binding score of 1.
For B4, the binding score was 1.89.
In the case of B5, the binding score is reported as 1.2.
B6 was tested, and the binding score was 1.88.
B7 showed a binding score of 1.3.
For B8, the binding score was 0.985.
B9 was tested, and the binding score was 0.643.
B10 was tested, and the binding score was 1.09.
In the case of B11, the binding score is reported as 1.01.
B12 showed a binding score of 0.739.
